Paper PMC4756287

Key:
[1] = molecular target: Lhcb1,2 (major components of LHCII trimers); experiment: native gel or EMSA; BN-PAGE (4-12.5%) followed by Tricine-SDS PAGE (2D-PAGE), Coomassie; isolated thylakoids, 8 μg Chl, 0.5 mg/ml Chl in 25 mM BisTris/HCl pH 7.0, 20% glycerol, solubilized with 1% α-DDM (0.6 and 1.5% as controls); plants grown under GL200, GL600, GL1800 or shifted 0.5, 2, 6 h to GL1800
[2] = molecular target: Lhcb1,2 (major components of LHCII trimers); experiment: native gel or EMSA; BN-PAGE of purified LHCII trimers (3 μg of Chl) solubilized in 0.3, 0.6 and 1% α-DDM
[3] = molecular target: Photosystem II core (C) (Arabidopsis thaliana (endogenous in leaf thylakoids)) (UniProt P83755); experiment: native gel or EMSA; BN-PAGE (4-12.5%) followed by Tricine-SDS PAGE (2D-PAGE), Coomassie; isolated thylakoids, 8 μg Chl, 0.5 mg/ml Chl in 25 mM BisTris/HCl pH 7.0, 20% glycerol, solubilized with 1% α-DDM (0.6 and 1.5% as controls); plants grown under GL200, GL600, GL1800 or shifted 0.5, 2, 6 h to GL1800

stoichiometry N [1]	stoichiometry N [2]	stoichiometry N [3]	Substance
3	3		Lhcb1,2 (major components of LHCII trimers)
		2	Photosystem II core (C) (from UniProt P83755 1-344; P56761 1-353; P56777 1-508; P56778 15-473; P23321 86-332) (complex)
